# Reference: paper PMC5832979, “Ligand complex structures of L‐amino acid oxidase/monooxygenase from Pseudomonas sp. AIU 813 and its conformational change” (FEBS Open Bio, 2018)
# T1: L-AAO/MOG (Pseudomonas sp. AIU 813, UniProt W6JQJ6)
# T1 construct: gene laao; N-terminally His-tagged, pET15b-laao/mog, expressed in E. coli; homodimer with FAD
# T1 sequence (W6JQJ6 1-560): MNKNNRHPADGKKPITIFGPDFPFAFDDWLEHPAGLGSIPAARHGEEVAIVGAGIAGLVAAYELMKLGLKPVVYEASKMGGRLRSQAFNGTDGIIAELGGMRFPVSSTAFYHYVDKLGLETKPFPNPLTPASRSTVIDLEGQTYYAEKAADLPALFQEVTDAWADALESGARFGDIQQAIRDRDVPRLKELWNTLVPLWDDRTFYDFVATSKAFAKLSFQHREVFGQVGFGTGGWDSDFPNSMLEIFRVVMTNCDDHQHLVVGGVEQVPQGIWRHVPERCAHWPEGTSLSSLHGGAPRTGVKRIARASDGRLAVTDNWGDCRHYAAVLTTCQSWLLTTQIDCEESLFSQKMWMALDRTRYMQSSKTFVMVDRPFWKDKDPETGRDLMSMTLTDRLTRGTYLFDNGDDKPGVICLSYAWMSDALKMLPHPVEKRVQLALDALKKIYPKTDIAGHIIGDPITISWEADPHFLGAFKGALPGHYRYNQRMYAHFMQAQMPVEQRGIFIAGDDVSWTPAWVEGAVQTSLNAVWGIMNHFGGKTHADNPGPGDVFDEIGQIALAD
# B1: L‐Amino acid oxidase/monooxygenase from Pseudomonas sp. AIU 813 (enzyme)
# chain: T1 sequence (W6JQJ6 1-560)
# notes: L-amino acid oxidase/monooxygenase (L-AAO/MOG), Pseudomonas sp; AIU 813; FAD-dependent; expression plasmid pET15b-laao/mog; Carries FAD; The biological dimer is chains A-C and B-D of the crystal; also called L‐AAO/MOG; wild‐type enzyme
# Key:
# L-AAO/MOG [1] = target: T1, L-AAO/MOG; test: X-ray crystal structure, […] Å; type: binding; settings: bound cofactor; redox state mixed or uncertain; L-Lys complex
# L-AAO/MOG [2] = target: T1, L-AAO/MOG; test: X-ray crystal structure, soaking, […] Å; type: binding; settings: active site, also second site; 20 mM soak; density relatively ambiguous; modelled as unreacted substrate
# L-AAO/MOG [3] = target: T1, L-AAO/MOG; test: X-ray crystal structure, soaking, […] Å; type: binding; settings: active site, also second site at dimer interface; 10 mM soak; modelled as unreacted substrate, redox state uncertain
# L-AAO/MOG [4] = target: T1, L-AAO/MOG; test: X-ray crystal structure, soaking, […] Å; type: binding; settings: active site, also second site; 20 mM soak; density relatively ambiguous; modelled as unreacted substrate; remark: listed apart in the source
# N=C(N)NCCC[C@H](N)C(=O)O = system: T2, N=C(N)NCCC[C@H](N)C(=O)O; test: purified protein; type: biochemical, Pseudomonas sp. AIU 813; settings: oxidase reaction, borate-NaOH pH 9.0, 30 °C, pH 9.0
# T2 construct: N-terminally His-tagged, pET15b-laao/mog, expressed in E. coli; homodimer with FAD
# NCCCC[C@H](N)C(=O)O = system: T3, NCCCC[C@H](N)C(=O)O; test: purified protein; type: biochemical, Pseudomonas sp. AIU 813; settings: 100 mM potassium phosphate pH 7.0, 30 °C
# T3 construct: N-terminally His-tagged, pET15b-laao/mog, expressed in E. coli; homodimer with FAD
# [5] = target: the molecule itself; test: crystal structure; sitting-drop vapor diffusion at 20 °C, 20% PEG3350 and 0.15 M DL-malic acid pH 7.0; crystals soaked with 10 mM L-Lys, 20 mM L-Orn or 20 mM L-Arg; tetramer (two biological dimers) in the asymmetric unit
# purified protein [6] = substrate: NCCCC[C@H](N)C(=O)O; test: purified protein; type: biochemical, Pseudomonas sp. AIU 813; settings: 100 mM potassium phosphate pH 7.0, 30 °C, pH 7.0
# purified protein [7] = substrate: N=C(N)NCCC[C@H](N)C(=O)O; test: purified protein; type: biochemical, Pseudomonas sp. AIU 813; settings: borate-NaOH pH 9.0, 30 °C, pH 9.0
# purified protein [8] = substrate: NCCC[C@H](N)C(=O)O; test: purified protein; settings: borate-NaOH pH 9.0, 30 °C
molecule,measurement,setting,value
Cc1cc2nc3c(=O)[nH]c(=O)nc-3n(C[C@H](O)[C@H](O)[C@H](O)COP(=O)(O)OP(=O)(O)OC[C@H]3O[C@@H](n4cnc5c(N)ncnc54)[C@H](O)[C@@H]3O)c2cc1C [FAD],"X-ray crystal structure, 2.10 Å",L-AAO/MOG [1],FAD and L‐Lys molecules are shown as yellow and magenta sticks
N=C(N)NCCC[C@H](N)C(=O)O [L-Arg],"X-ray crystal structure, soaking, 2.30 Å",L-AAO/MOG [2],"The structures of L‐AAO/MOG complexed with either L‐Lys, L‐Orn, or L‐Arg were determined"
NCCCC[C@H](N)C(=O)O [L-Lys],"X-ray crystal structure, soaking, 2.10 Å",L-AAO/MOG [3],electron density map for a L‐Lys molecule was clearly observed in the substrate binding pocket
NCCC[C@H](N)C(=O)O [L-Orn],"X-ray crystal structure, soaking, 2.00 Å",L-AAO/MOG [4],"The structures of L‐AAO/MOG complexed with either L‐Lys, L‐Orn, or L‐Arg were determined"
L-AAO/MOG (Pseudomonas sp. AIU 813; D238A),Km,N=C(N)NCCC[C@H](N)C(=O)O,410 ± 10 µM
same,kcat,N=C(N)NCCC[C@H](N)C(=O)O,0.1 ± 0.02 s⁻¹
same,kcat/Km,N=C(N)NCCC[C@H](N)C(=O)O,240 ± 60 M⁻¹ s⁻¹
same,Km,NCCCC[C@H](N)C(=O)O; monooxygenase reaction,260 ± 20 µM
same,kcat,NCCCC[C@H](N)C(=O)O; monooxygenase reaction,2.7 ± 0.4 s⁻¹
same,kcat/Km,NCCCC[C@H](N)C(=O)O; monooxygenase reaction,10000 ± 1000 M⁻¹ s⁻¹
same,Km,"NCCCC[C@H](N)C(=O)O; oxidase reaction, pH 7.0",610 ± 50 µM
same,kcat,"NCCCC[C@H](N)C(=O)O; oxidase reaction, pH 7.0",0.5 ± 0.03 s⁻¹
L-AAO/MOG (Pseudomonas sp. AIU 813; D238E),Km,NCCCC[C@H](N)C(=O)O; monooxygenase reaction,43 ± 1 µM
same,kcat,NCCCC[C@H](N)C(=O)O; monooxygenase reaction,8.1 ± 0.6 s⁻¹
same,kcat/Km,NCCCC[C@H](N)C(=O)O; monooxygenase reaction,190000 ± 10000 M⁻¹ s⁻¹
same,Km,NCCCC[C@H](N)C(=O)O; oxidase reaction,18 ± 6 µM
same,kcat,NCCCC[C@H](N)C(=O)O; oxidase reaction,2.3 ± 0.3 s⁻¹
same,kcat/Km,NCCCC[C@H](N)C(=O)O; oxidase reaction,130000 ± 10000 M⁻¹ s⁻¹
L-AAO/MOG (Pseudomonas sp. AIU 813; D238F),Km,N=C(N)NCCC[C@H](N)C(=O)O,80 ± 18 µM
same,kcat,N=C(N)NCCC[C@H](N)C(=O)O,0.1 ± 0.01 s⁻¹
same,kcat/Km,N=C(N)NCCC[C@H](N)C(=O)O,1300 ± 100 M⁻¹ s⁻¹
same,Km,NCCCC[C@H](N)C(=O)O; monooxygenase reaction,72 ± 3 µM
same,kcat,NCCCC[C@H](N)C(=O)O; monooxygenase reaction,0.8 ± 0.04 s⁻¹
same,kcat/Km,NCCCC[C@H](N)C(=O)O; monooxygenase reaction,11000 ± 1000 M⁻¹ s⁻¹
same,Km,"NCCCC[C@H](N)C(=O)O; oxidase reaction, pH 7.0",49 ± 9 µM
same,kcat,"NCCCC[C@H](N)C(=O)O; oxidase reaction, pH 7.0",0.17 ± 0.01 s⁻¹
same,kcat/Km,"NCCCC[C@H](N)C(=O)O; oxidase reaction, pH 7.0",3500 ± 200 M⁻¹ s⁻¹
B1,binding result,[5],binds
same,Km,purified protein [6]; monooxygenase reaction,61 ± 6 µM
same,kcat,purified protein [6]; monooxygenase reaction,4.5 ± 0.1 s⁻¹
same,kcat/Km,purified protein [6]; monooxygenase reaction,74000 ± 5000 M⁻¹ s⁻¹
same,Km,purified protein [6]; oxidase reaction,27 ± 3 µM
same,kcat,purified protein [6]; oxidase reaction,0.8 ± 0.09 s⁻¹
same,kcat/Km,purified protein [6]; oxidase reaction,30000 ± 1000 M⁻¹ s⁻¹
same,Km,purified protein [7]; monooxygenase reaction,67 ± 5 µM
same,kcat,purified protein [7]; monooxygenase reaction,1.6 ± 0.2 s⁻¹
same,kcat/Km,purified protein [7]; monooxygenase reaction,24000 ± 1000 M⁻¹ s⁻¹
same,Km,purified protein [7]; oxidase reaction,48 ± 1 µM
same,kcat,purified protein [7]; oxidase reaction,0.41 ± 0.02 s⁻¹
same,kcat/Km,purified protein [7]; oxidase reaction,8500 ± 650 M⁻¹ s⁻¹
same,Km,purified protein [8]; monooxygenase reaction,33 ± 1 µM
same,kcat,purified protein [8]; monooxygenase reaction,6.7 s⁻¹
same,kcat/Km,purified protein [8]; monooxygenase reaction,200000 M⁻¹ s⁻¹
same,Km,purified protein [8]; oxidase reaction,22 ± 4 µM
same,kcat,purified protein [8]; oxidase reaction,1.5 s⁻¹
same,kcat/Km,purified protein [8]; oxidase reaction,68000 M⁻¹ s⁻¹
